Measurements taken from article PMC10992996, “Human CRB1 and CRB2 form homo- and heteromeric protein complexes in the retina” (Life Science Alliance, 2024).

Target: T1, CRB1-FLAG p.G1103R (human, UniProt P82279 26-1406, p.G1103R)
T1 construct: Crumbs homolog 1, canonical form, human, cDNA NM_202153 as printed, with a patient missense mutation in the last laminin G domain; Made by site-directed mutagenesis of m1; also called CRB1 p.G1103R; CRB1-FLAG MT; source: HEK293T, transfected, in lysate; not shown: Strep-Strep-FLAG, N-terminal, kept
T1 sequence (looked up): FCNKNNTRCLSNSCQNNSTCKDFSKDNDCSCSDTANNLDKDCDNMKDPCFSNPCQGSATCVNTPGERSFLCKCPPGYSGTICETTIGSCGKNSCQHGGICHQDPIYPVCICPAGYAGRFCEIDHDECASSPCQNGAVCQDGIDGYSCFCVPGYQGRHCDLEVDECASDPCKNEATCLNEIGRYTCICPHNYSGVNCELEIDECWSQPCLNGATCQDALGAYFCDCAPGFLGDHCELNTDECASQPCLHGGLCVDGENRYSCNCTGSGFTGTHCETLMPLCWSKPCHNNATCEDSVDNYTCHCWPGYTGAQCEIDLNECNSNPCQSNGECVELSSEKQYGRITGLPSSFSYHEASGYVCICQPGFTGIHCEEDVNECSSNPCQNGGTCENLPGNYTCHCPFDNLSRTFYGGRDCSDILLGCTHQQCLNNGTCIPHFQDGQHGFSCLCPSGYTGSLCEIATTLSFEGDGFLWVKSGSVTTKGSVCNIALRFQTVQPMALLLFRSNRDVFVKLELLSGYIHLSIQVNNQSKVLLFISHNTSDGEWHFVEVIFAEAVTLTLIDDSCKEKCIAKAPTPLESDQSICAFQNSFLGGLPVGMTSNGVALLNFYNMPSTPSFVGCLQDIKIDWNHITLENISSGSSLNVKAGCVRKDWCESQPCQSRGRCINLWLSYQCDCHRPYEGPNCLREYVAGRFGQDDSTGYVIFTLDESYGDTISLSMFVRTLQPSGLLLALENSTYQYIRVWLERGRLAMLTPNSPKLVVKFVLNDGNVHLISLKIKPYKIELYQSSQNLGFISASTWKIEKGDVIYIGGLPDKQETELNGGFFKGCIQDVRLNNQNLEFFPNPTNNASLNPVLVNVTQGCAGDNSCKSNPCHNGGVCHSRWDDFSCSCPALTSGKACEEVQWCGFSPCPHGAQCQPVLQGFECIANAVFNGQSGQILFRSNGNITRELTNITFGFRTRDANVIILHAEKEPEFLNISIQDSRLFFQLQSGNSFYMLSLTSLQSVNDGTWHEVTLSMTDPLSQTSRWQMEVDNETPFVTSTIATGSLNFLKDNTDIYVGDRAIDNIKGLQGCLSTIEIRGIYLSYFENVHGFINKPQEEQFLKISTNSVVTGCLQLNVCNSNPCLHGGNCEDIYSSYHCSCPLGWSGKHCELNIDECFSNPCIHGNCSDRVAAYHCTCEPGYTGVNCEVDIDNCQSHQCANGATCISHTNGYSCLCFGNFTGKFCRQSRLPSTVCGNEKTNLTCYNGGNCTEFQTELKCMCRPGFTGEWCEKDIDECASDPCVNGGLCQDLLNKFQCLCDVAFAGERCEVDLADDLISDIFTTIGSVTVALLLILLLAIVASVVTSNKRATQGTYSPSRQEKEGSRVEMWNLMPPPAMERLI
Experiment: co-IP; HEK293T cells co-transfected pairwise with a FLAG and an HA construct, 48 h; lysis in TBS (30 mM Tris-HCl pH 7.4, 150 mM NaCl) with 0.5% Nonidet P40; FLAG-IP on ANTI-FLAG M2 Affinity Gel 60-90 min at 4°C, elution with FLAG peptide; Western blot with HA and FLAG antibodies; for mutants HA/FLAG signal in eluates relative to WT, three biological replicates
Conditions: partners not purified

B1: Human canonical CRB2 (Crumbs homolog 2) (natural protein)
chain: not shown
notes: Crumbs homolog 2, human, cDNA NM_173689; Stood as bait (FLAG copy) and as prey (HA copy) in the pairwise co-IP matrix; each copy carries only one of the two tags; The FLAG copy was the bait of the mass spectrometry pull-downs; also called CRB2-FLAG; CRB2-HA; source: HEK293T, transfected, in lysate (co-IP); HEK293T, transfected, FLAG-IP on beads, washed and purified with 0.01% SDS (retina …)
percent reduction of the interaction relative to CRB1 WT: ~30%
